Test results published in patent US20230074436A1 (DENALI THERAPEUTICS, published 2023).
No end group written: not given here. *: point of attachment. Biotin = O=C1N[C@H]2[C@H](CS[C@H]2CCCCC(=O)*)N1

Legend:
beta-synuclein protein = molecular target: T1, beta-synuclein protein (human, UniProt Q16143 1-134); assay: ELISA on coated synuclein, 1 ug/mL
T1 construct: species read from 'recombinant human alpha-synuclein protein, beta-synuclein protein, and gamma-synuclein protein'
Method: (§1) Binding to different synuclein species was tested using a method similar to the ELISA format described above. Briefly, recombinant human alpha-synuclein protein, beta-synuclein protein, and gamma-synuclein protein was coated onto 96-well Nunc plates at 1 μg/mL. The plates were washed with PBST and blocked with 150 μL of 3% BSA in PBS. The serial dilutions of purified antibodies were applied onto the plate, and the associated antibody was detected with goat anti-rat HRP secondary antibody.

gamma-synuclein protein = molecular target: T2, gamma-synuclein protein (human, UniProt O76070 1-127); assay: ELISA on coated synuclein, 1 ug/mL
T2 construct: species read from 'recombinant human alpha-synuclein protein, beta-synuclein protein, and gamma-synuclein protein'
Method: as §1

asyn_113-127_125A = molecular target: T3, asyn_113-127_125A (human); assay: Ala-scan peptide ELISA, row G, run 1
T3 construct: substitution is already in the entry; also called pep15
T3 peptide: Biotin-LEDMPVDPDNEAAEM
Method: (§2) 96-well Nunc plates were coated with 50 μL per well of 1 μg/mL streptavidin (from Jackson Immuno Research Laboratory) in PBS at 4° C. overnight. The plates were washed three times with PBST, and blocked with PBS containing 3% BSA at room temperature for 1 hour. The N-terminal biotinylated peptides were dissolved in Milli Q water to a concentration of 2 mg/mL, then further diluted to a concentration of 2 μg/mL with PBS. 50 μl of the diluted peptide was applied to the streptavidin-coated plates and incubated at 4° C. overnight. 2 μg/mL of biotinylated human alpha-synuclein was used as the positive control. The plates were washed three times with PBST before use. Purified antibody was diluted by serial dilution methods, from 20 μg/mL to 1 ng/mL, and 50 μL of the antibody solution was added to the peptide-coated wells. The plates were incubated for 1 hour at room temperature, then washed three times with PBST. Secondary detection antibody (goat anti-rat HRP (obtained from Southern Biotech)) was added with 1:5,000 dilutions and incubated for 1 hour at room temperature, then washed three times with PBST. Plates were developed with 50 μL/well of TMB substrate (Thermo Fisher) and quenched with 50 μL/well of 1 N sulfuric acid. The signal was quantified on a BioTek® plate reader at A450. A parallel repeat was performed for each peptide in a separate plate.

asyn_113-127_114A [1] = molecular target: T4, asyn_113-127_114A (human); assay: Ala-scan peptide ELISA, row G, run 1
T4 construct: substitution is already in the entry; also called pep3
T4 peptide: Biotin-LADMPVDPDNEAYEM
Method: as §2

asyn_113-127_119A [2] = molecular target: T5, asyn_113-127_119A (human); assay: Ala-scan peptide ELISA, row G, run 1
T5 construct: substitution is already in the entry; also called pep8
T5 peptide: Biotin-LEDMPVAPDNEAYEM
Method: as §2

asyn_113-127_127A [3] = molecular target: T6, asyn_113-127_127A (human); assay: Ala-scan peptide ELISA, row G, run 1
T6 construct: substitution is already in the entry; also called pep17
T6 peptide: Biotin-LEDMPVDPDNEAYEA
Method: as §2

asyn_113-127_126A [4] = molecular target: T7, asyn_113-127_126A (human); assay: Ala-scan peptide ELISA, row G, run 1
T7 construct: substitution is already in the entry; also called pep16
T7 peptide: Biotin-LEDMPVDPDNEAYAM
Method: as §2

asyn_113-127_124G [5] = molecular target: T8, asyn_113-127_124G (human); assay: Ala-scan peptide ELISA, row G, run 1
T8 construct: substitution is already in the entry; also called pep13
T8 peptide: Biotin-LEDMPVDPDNEGYEM
Method: as §2

asyn_113-127_120A [6] = molecular target: T9, asyn_113-127_120A (human); assay: Ala-scan peptide ELISA, row G, run 1
T9 construct: substitution is already in the entry; also called pep9
T9 peptide: Biotin-LEDMPVDADNEAYEM
Method: as §2

asyn_113-127_118A = molecular target: T10, asyn_113-127_118A (human); assay: Ala-scan peptide ELISA, row G, run 1
T10 construct: substitution is already in the entry; also called pep7
T10 peptide: Biotin-LEDMPADPDNEAYEM
Method: as §2

asyn_113-127_123A [7] = molecular target: T11, asyn_113-127_123A (human); assay: Ala-scan peptide ELISA, row G, run 1
T11 construct: substitution is already in the entry; also called pep12
T11 peptide: Biotin-LEDMPVDPDNAAYEM
Method: as §2

asyn_113-127_117A [8] = molecular target: T12, asyn_113-127_117A (human); assay: Ala-scan peptide ELISA, row G, run 1
T12 construct: substitution is already in the entry; also called pep6
T12 peptide: Biotin-LEDMAVDPDNEAYEM
Method: as §2

asyn_113-127_115A = molecular target: T13, asyn_113-127_115A (human); assay: Ala-scan peptide ELISA, row G, run 1
T13 construct: substitution is already in the entry; also called pep4
T13 peptide: Biotin-LEAMPVDPDNEAYEM
Method: as §2

asyn_113-127_124P [9] = molecular target: T14, asyn_113-127_124P (human); assay: Ala-scan peptide ELISA, row G, run 1
T14 construct: substitution is already in the entry; also called pep14
T14 peptide: Biotin-LEDMPVDPDNEPYEM
Method: as §2

asyn_113-127_122A [10] = molecular target: T15, asyn_113-127_122A (human); assay: Ala-scan peptide ELISA, row G, run 1
T15 construct: substitution is already in the entry; also called pep11
T15 peptide: Biotin-LEDMPVDPDAEAYEM
Method: as §2

asyn_113-127_113A [11] = molecular target: T16, asyn_113-127_113A (human); assay: Ala-scan peptide ELISA, row G, run 1
T16 construct: substitution is already in the entry; also called pep2
T16 peptide: Biotin-AEDMPVDPDNEAYEM
Method: as §2

asyn_113-127_116A [12] = molecular target: T17, asyn_113-127_116A (human); assay: Ala-scan peptide ELISA, row G, run 1
T17 construct: substitution is already in the entry; also called pep5
T17 peptide: Biotin-LEDAPVDPDNEAYEM
Method: as §2

[13] = molecular target: T18, biotinylated human alpha-synuclein (human, UniProt P37840 1-140); assay: Ala-scan peptide ELISA, row G, run 1
Method: as §2

asyn_113-127 [14] = molecular target: T19, asyn_113-127 (human); assay: Ala-scan peptide ELISA, row G, run 1
T19 construct: also called pep1
T19 peptide: Biotin-LEDMPVDPDNEAYEM
Method: as §2

asyn_113-127_121A [15] = molecular target: T20, asyn_113-127_121A (human); assay: Ala-scan peptide ELISA, row G, run 1
T20 construct: substitution is already in the entry; also called pep10
T20 peptide: Biotin-LEDMPVDPANEAYEM
Method: as §2

asyn_113-127_114A [16] = molecular target: T4, asyn_113-127_114A; assay: Ala-scan peptide ELISA, row H, run 2
Method: as §2

asyn_113-127_119A [17] = molecular target: T5, asyn_113-127_119A; assay: Ala-scan peptide ELISA, row H, run 2
Method: as §2

asyn_113-127_127A [18] = molecular target: T6, asyn_113-127_127A; assay: Ala-scan peptide ELISA, row H, run 2
Method: as §2

asyn_113-127_126A [19] = molecular target: T7, asyn_113-127_126A; assay: Ala-scan peptide ELISA, row H, run 2
Method: as §2

asyn_113-127_124G [20] = molecular target: T8, asyn_113-127_124G; assay: Ala-scan peptide ELISA, row H, run 2
Method: as §2

asyn_113-127_120A [21] = molecular target: T9, asyn_113-127_120A; assay: Ala-scan peptide ELISA, row H, run 2
Method: as §2

asyn_113-127_123A [22] = molecular target: T11, asyn_113-127_123A; assay: Ala-scan peptide ELISA, row H, run 2
Method: as §2

asyn_113-127_117A [23] = molecular target: T12, asyn_113-127_117A; assay: Ala-scan peptide ELISA, row H, run 2
Method: as §2

asyn_113-127_124P [24] = molecular target: T14, asyn_113-127_124P; assay: Ala-scan peptide ELISA, row H, run 2
Method: as §2

asyn_113-127_122A [25] = molecular target: T15, asyn_113-127_122A; assay: Ala-scan peptide ELISA, row H, run 2
Method: as §2

asyn_113-127_113A [26] = molecular target: T16, asyn_113-127_113A; assay: Ala-scan peptide ELISA, row H, run 2
Method: as §2

asyn_113-127_116A [27] = molecular target: T17, asyn_113-127_116A; assay: Ala-scan peptide ELISA, row H, run 2
Method: as §2

[28] = molecular target: T18, biotinylated human alpha-synuclein; assay: Ala-scan peptide ELISA, row H, run 2
Method: as §2

asyn_113-127 [29] = molecular target: T19, asyn_113-127; assay: Ala-scan peptide ELISA, row H, run 2
Method: as §2

asyn_113-127_121A [30] = molecular target: T20, asyn_113-127_121A; assay: Ala-scan peptide ELISA, row H, run 2
Method: as §2

B1: 20H4 (antibody, rat IgG2b, V domains shown)
VH: AVQLVESGGGLVQPKESLKISCAASGFTFSNAAMYWVRQAPGKGLELLARIRTKPNNYATYHADSVKGRFTISRDDSQSMVYLHMGNLKTEDTAMYYCTADMATGDYWGPGVMVTVSS
VL: DIQMTQSPPVLSVSVGDRVTLSCKASQNINKNLDWYQQKHGEAPKPLIYSTNNLQTGVPSRFSGSGSGTDYTLTISSLQPEDVATYYCYQYKSAWTFGGGTKLELR
notes: also called clone 20H4; rat 20H4
Q: Does B1 bind (beta-synuclein protein)?
A: Result: no binding

Q: Does B1 bind (gamma-synuclein protein)?
A: Result: no binding

Q: What about the A450 (asyn_113-127_125A) of the same binder?
A: Its A450 is 0.046 OD.

Q: What about the A450 (asyn_113-127_114A [1]) of the same binder?
A: The A450 was 0.083 OD.

Q: What about the A450 (asyn_113-127_119A [2]) of the same binder?
A: Its A450 is 0.048 OD.

Q: What about the A450 (asyn_113-127_127A [3]) of the same binder?
A: Its A450 is 0.094 OD.

Q: And the A450 (asyn_113-127_126A [4])?
A: Its A450 is 0.098 OD.

Q: What about the A450 (asyn_113-127_124G [5]) of the same binder?
A: Its A450 is 0.099 OD.

Q: What about the A450 (asyn_113-127_120A [6]) of the same binder?
A: Its A450 is 0.08 OD.

Q: And the A450 (asyn_113-127_118A)?
A: The A450 was 0.107 OD.

Q: What about the A450 (asyn_113-127_123A [7]) of the same binder?
A: The A450 was 0.093 OD.

Q: What about the A450 (asyn_113-127_117A [8]) of the same binder?
A: The A450 was 0.102 OD.

Q: And the A450 (asyn_113-127_115A)?
A: The A450 was 0.058 OD.

Q: And the A450 (asyn_113-127_124P [9])?
A: Its A450 is 0.044 OD.

Q: And the A450 (asyn_113-127_122A [10])?
A: The A450 was 0.049 OD.

Q: And the A450 (asyn_113-127_113A [11])?
A: The A450 was 0.095 OD.

Q: What about the A450 (asyn_113-127_116A [12]) of the same binder?
A: Its A450 is 0.098 OD.

Q: And the A450 [13]?
A: Its A450 is 0.141 OD.

Q: What about the A450 (asyn_113-127 [14]) of the same binder?
A: Its A450 is 0.089 OD.

Q: What about the A450 (asyn_113-127_121A [15]) of the same binder?
A: The A450 was 0.091 OD.

Q: What about the A450 (asyn_113-127_114A [16]) of the same binder?
A: Its A450 is 0.066 OD.

Q: What about the A450 (asyn_113-127_119A [17]) of the same binder?
A: The A450 was 0.046 OD.

Q: What about the A450 (asyn_113-127_127A [18]) of the same binder?
A: Its A450 is 0.066 OD.

Q: And the A450 (asyn_113-127_126A [19])?
A: The A450 was 0.073 OD.

Q: What about the A450 (asyn_113-127_124G [20]) of the same binder?
A: Its A450 is 0.066 OD.

Q: What about the A450 (asyn_113-127_120A [21]) of the same binder?
A: The A450 was 0.057 OD.

Q: What about the A450 (asyn_113-127_123A [22]) of the same binder?
A: The A450 was 0.068 OD.

Q: And the A450 (asyn_113-127_117A [23])?
A: Its A450 is 0.083 OD.

Q: And the A450 (asyn_113-127_124P [24])?
A: Its A450 is 0.046 OD.

Q: What about the A450 (asyn_113-127_122A [25]) of the same binder?
A: The A450 was 0.051 OD.

Q: And the A450 (asyn_113-127_113A [26])?
A: Its A450 is 0.066 OD.

Q: And the A450 (asyn_113-127_116A [27])?
A: The A450 was 0.073 OD.

Q: And the A450 [28]?
A: Its A450 is 0.087 OD.

Q: What about the A450 (asyn_113-127 [29]) of the same binder?
A: Its A450 is 0.064 OD.

Q: And the A450 (asyn_113-127_121A [30])?
A: Its A450 is 0.069 OD.
